This assay concerns the target matrilin-3 (wild type, mouse) (mouse (endogenous in mouse cartilage and chondrocytes)) (UniProt O35701). As to the kind of experiment: non-reducing SDS-PAGE and Western blot; total protein lysates of isolated chondrocytes of 5-day-old mice, 4-12% gels, non-reduced against reduced (0.1 M DTT); oligomers assigned by apparent size. Background: A western blot detects proteins with antibodies after separation by electrophoresis.

Sequence of matrilin-3 (wild type, mouse) (O35701 28-481): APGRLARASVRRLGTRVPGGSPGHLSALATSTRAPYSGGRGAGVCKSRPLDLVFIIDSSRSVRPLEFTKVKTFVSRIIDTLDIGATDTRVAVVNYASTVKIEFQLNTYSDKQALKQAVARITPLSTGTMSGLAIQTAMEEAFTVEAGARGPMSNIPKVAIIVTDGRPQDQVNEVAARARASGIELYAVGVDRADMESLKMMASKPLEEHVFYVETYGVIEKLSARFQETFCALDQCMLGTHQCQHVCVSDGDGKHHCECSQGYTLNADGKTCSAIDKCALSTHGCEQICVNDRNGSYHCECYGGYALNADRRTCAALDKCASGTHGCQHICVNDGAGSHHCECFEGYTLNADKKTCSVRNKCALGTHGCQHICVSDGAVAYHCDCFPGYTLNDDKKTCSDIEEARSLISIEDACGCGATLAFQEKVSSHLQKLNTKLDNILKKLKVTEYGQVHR

On to “matrilin-3 (wild type, mouse) (from UniProt O35701 28-481) (natural protein)”, for which the stoichiometry N (in general, a count of units in the complex or per binding partner) is 4.

Values taken from paper PMC3744072.
